Experiment: soluble on expression in E. coli; label from the status in PepcDB or PDB records

| Sequence | soluble on expression in E. coli |
| --- | --- |
| MSLAERLEIMVPSGSYVSFMRNTVTPEFNKLYPEVNLVVSNDEQLDTRMAAGDNPNVYIGVFGYQPAKLAKLGKLAYLDKFPGFAELNERIDPHFLRENFGRTYYIPWNATTQMMIYNKELFAEAGLDPERPPATWDEFLLAAEKISALPPRSDGSKVYGTVFWNDVLSFGSWYWNLLTPMYYNVNQGQYQLLNRYGTDIVFDRPDANMAQFMRTMQQAQRFAPLTMEKSFFSRNIGMWLQFGFGWKATLSSAAERPMVVGQDVAIAPIPVQTKGDIHYSVLDGRAIMIFKDEARKEQLSWALLNLLMRDDINLQANIALGQLPTLKALQDAPYFQSAEAQPFVQQLQHAILSEPFANAMEVANIILANYSKVVLKGEISPEQAVATSAQAARQLLNEHEGHHHHHH | soluble |
| KKTFLTVRGNLTFNKDKIIENDEPPVDYPWMETRGTNVNATWGFIADGLFTSQAEIEDHATQFGTVHVGDIKYRDLNGDGVIDNYDKTVIGRGDVPRIYYGFGADLQIGDFSISALFQGTGQADRYLDGICIKPFWDDEGRDNVFANIHDRWSPDDPTNQDVFYPRMYVGSDANTNNVQKSSWWVKDVSFLRLKQLNISYNIPKKLLDRCFLKSASVYLMGTNLLTFSNFKLWDPELNTSNGTAYPNVSSYSVGVKFSF | not soluble |
| MGSDKIHHHHHHMKVWPVKHSPLLRQPERFIARSELQALIRNVTQNLVNIKDESGQFLLRLDDGRVIDTKGWAGWEWTHGVGLYGIYQYYQQTGDIEMRDIIDRWFADRFAEGATTKNVNTMAPFLTLAYRFEETGRMAYLPWLESWAEWAMHEMPRTEQGGMQHMTLAEENHQQMWDDTLMMTVLPLAKIGKLLNRPQYVEEATYQFLLHVQNLMDRETGLWFHGWNYEGRHNFARARWARGNSWLTMVIPDFLELVDLPEGNAVRRYLITVLDAQIAALAECQDDSGLWHTLLDDPHSYLEASATAGFAYGILKAVRKRYVGQHYAGVAEKAIRGIVQNISPQGELLQTSFGTGMGSDLDFYRQIPLTSMPYGQAMAILCLTEYLRKYF | not soluble |
| MKTIHIYTNGRFEEKQSGIVREFPLVLHVNGREIATLISSPHDLRFLVAGFLRNQGFVERAEDFHMLAVCDDFGIANARIRGELPERLKPVLTSGCGTGVTFTLETPKIPPPLALPAITTDAVFRLMEELARRADNYRSHGGIHSAAVGDGEGNLLLFAEDIGRHNTLDRIAGEALFKGIDLAGTILVTSGRVSTEMAAKCARLGIALIASRTSATDMAVKMCDEAGIPLIGYVRGGKFTVYAHHERLAMAPPVGAIHELPLPASAQGRRIPGITGVILAGGQSRRMGSNKALLPYKGGRFIEAIHRQLAEIFDEVLLVTNNPEQYDFLPCRKVADIHPGMGALAGIHAGLHHAANPAAFMVACDMPYLNSDLIRHLATLADPGGVLIPESPAGLEPLHAVYGKGCLAAIETTLLSGERRIVSFFGRTNVNRVNAEQVALFDPDYATFSNINTPVDYYRLRDGERDELDAALGADRIAGLEHHHHHH | not soluble |
| MGSDKIHHHHHHMAVFSQYFGKLNQYKNALTQKVDNYWTLSCFQDVAAINPWLVPGQGRKTGSSIVLKNDVLVELGSPEAGSCSMTLYTNSPHQITDGWITLMGSDITEYTPKKLPFGQVIMVGGEHLTEEDYYYLLQNLNVSEMIEGYMIRSTAESIWCRISKDAAKNGFNFHVLGSVLNWHIKQILPKVKAVEIVFVTTTKEDIEELNQISKEVGEIGRRIKERIWREKGVDIYKCVPGGHCGACEDKTVCDTIRKIGAGR | not soluble |
| SLEDYLQGCRAALQESRPLHVVLGNEACDLDSTVSALALAFYLAKTTEAEEVFVPVLNIKRSELPLRGDIVFFLQKVHIPESILIFRDEIDLHALYQAGQLTLILVDHHILSKSDTALEEAVAEVLDHRPIEPKHCPPCHVSVELVGSCATLVTERILQGAPEILDRQTAALLHGTIILDCVNMDLKIGKATPKDSKYVEKLEALFPDLPKRNDIFDSLQKAKFDVSGLTTEQMLRKDQKTIYRQGVKVAISAIYMDLEAFLQRSNLLADLHAFCQAHSYDVLVAMTIFFNTHNEPVRQLAIFCPHVALQTTICEVLERSHSPPLKLTPASSTHPNLHAYLQGNTQVSRKKLLPLLQEALSAYFDSMKIPSGQPETADVSREQVDKELDRASNSLISGLSQDEG | soluble |
| MGSDKIHHHHHHMSDTLTDSRIVYFYEAVRCGTIRAAADWLDVAPSAVSRQIGLLEKELDATLVERHARGVTPTDAGRCVIEYFREQLAHRDDLISRLQELRGLKTGQVSLVLGEGFVSDLLAGPMQQFCRQFPGIRVNLDVGSTNDVIRKISNDEGEIGLVYNPPAEPKLVSRASKRQPMMAIVGPDFPRRSHKVLTVQQLATYPMAATHPSYGTRQMMEAVEYAERVRLAPIITTNSFAILKEFVKSGLGISVMPAFAVAAELQAKELFAIEIAHPILENAEAHMVTRVGRKLSVAANKMLQMMTGQMRAFR | not soluble |
| MATKVYIVYYSMYGHVEKLAQEIRKGAASVDGVEAILWQVPETLQEDVLSKMSAPPKSDAPIITPNELAEADGFIFGFPTRFGMMAAQFKAFLDATGGLWRTQQLAGKPAGIFYSTGSQGGGQETTALTAITQLVHHGMIFVPIGYTFGAGMFEMENVKGGSPYGAGTFAGDGSRQPTELELGQAFHQGKYIAAISKKLKGPAAA | soluble |
| MPVSSRRCGMITRREAERLCKSFLGDNTPPRLPDDFAFNVQHKCAWGCRGSFLPSRYNSSRAKCIKCSYCGMFFSPNKFIFHSHRITTNDRYVQPDAANFNSWRRHMSLSGNDYDEKIIHAWEDVKAMFNGGTRKRLVGSSINPRSPGSPTQSTAVSSGVGSSSCGSPTSFERDTNEVDGKSGSSLPQRSQIDSQYNYGTVAAAAAVVGVTAVAAATELCSGLHVAAEGPTLSAALRKKNPLEHHHHHH | not soluble |
| MHHHHHHSSGVDLGTENLYFQSNAMKEELIERFTRYVKIDTQSNEDSHTVPTTPGQIEFGKLLVEELKEVGLTEVTMDDNGYVMATLPANTDKDVPVIGFLAHLDTATDFTGKNVKPQIHENFDGNAITLNEELNIVLTPEQFPELPSYKGHTIITTDGTTLLGADDKAGLTEIMVAMNYLIHNPQIKHGKIRVAFTPDEEIGRGPAHFDVEAFGASFAYMMDGGPLGGLEYESFNAAGAKLTFNGTNTHPGTAKNKMRNATKLAMEFNGHLPVEEAPEYTEGYEGFYHLLSLNGDVEQSKAYYIIRDFDRKNFEARKNTIENIVKQMQEKYGQDAVVLEMNDQYYNMLEKIEPVREIVDIAYEAMKSLNIEPNIHPIRGGTDGSQLSYMGLPTPNIFTGGENYHGKFEYVSVDVMEKAVQVIIEIARRFEEQA | soluble |
| GPGSMTTPNFELYGYFRSSCSGRLRIAFHLKSIPYTRHPVNLLKGEQHSDTYKSLNPTNTVPLLVVSNINNTVSPSSASFSIGQSLAALEYLEEALPTNARPLLPPISNPVARAHVRTICNIIACDVQPVTNLKIQKKVKALDGDPTVWSRDLATQGFGAVEKLLELSAGRFCVGDEITLADVCLVPAVWAAERVGMDLARFPITKRVFEEMLKEEAVQKAHWQKQEDTPEDLRA | soluble |
| MGSDKIHHHHHHMMAPNQFSSGDVIADRRADYARMLAESGDYPAAAELMEQALELAPRWTAGWFRFGEYHEKAGETAKAVAAYEKVAELDAEGLFAAELKLAVLGAAETPEQPPSRYVEGLFDDYADRFETSLVEKLDYSVPQKLAELIGKAATGDAFDTIVDIGCGTGLLGIEIRSLAKRLEGFDISQNMLAKADEKSLYDHLGQADLSLDAEASGLFTPVLTQHRADLVAAADVMMYLGSLETVMPLVSALLKPSGFFAFSVEDAGDEQGFVLRESLRYAHSKSYVIDLLERSGFSPMEIRKTTIRKDAGKPLSGILFLARAKA | not soluble |
| MGSDKIHHHHHHMIKILLLIDYSSEFDRKLLRGLVQYSKENGPWLFYRLPSYYSGMYGEKGILKWAKEWKADAIIGQWNNDTVNLLKELNIPIVLQNYHHRSTTYSNLTGDYKGTGRMAAQFFAKRMFHNFAYFGINGVVWSDERCEGFRQEVKRIGGNFYCFESDKHEDEIRIEVSQWLQELPKPIALFCCDDSHALFISETCKISNIHIPEEISLLGVDNDDLICNISDPPISSIELEVERGGYSIGRLIHQQIKKEHEGTFNIVINPIRIELRQSTEKHNIKDPYILEVVKYIESHYNSDLTIESLLAQIPLSRRNFEVKFKNAMHTSIYQYILNCRVNHLADLLLTTDRSLADIATEAGFKDYNNISRIFKKFKGCSPLEYREKKITNR | not soluble |
| MGSDKIHHHHHHMTGLTEDLFGELLPPASPPQACVAGGGAPSPDKASRGKSVLPARPDPAIDALARRLPPNLYLGTSSWSYNGWNGLVYDGEYSDNLLSRKGLAAYSRHPLLRAAGIDRGFYGPIPLADYLSYAAQVPEQFRFLVKAPASVCDAWLRGSDGVGRLANAAFLDAEIAIRDFITPATSGLGAKCGPLLFQLSPLGSLANDAAAFLDRLDGFLSALPPLDPSITPHACYAVEMRDPVLLTPRYIKLLRRYGVRFCLSARDRLPPVHRQASAQALMDAEAPGPLVLRWMLHAGRPYEVAESIYAPFNRLVDEDPETRDAIADLVVRTLNAGQSATVIISNKAEGSAPLTCIRLAEAIAARL | not soluble |
| MGSDKIHHHHHHMGVYHRIRVSRQTTTLPNIILTKKMIAAKDKAPQLTPQEYFIWEEQQLEKHEYINGEVYAMTGGSVNHGRIAIRFTAMFDSHLQNTGCITGNSDIKVNIFGSNNYTYPDASVTCDVRDQTTTQYITYPCLIVEVLSKTTEAYDRGGKFRMYRQNPALIDYLLVSSTSVEIDLYHKNDAGDWLIINYKPGDTIELKSINLNFPIEKVYRGLTLEPENGG | not soluble |
| MGSDKIHHHHHHMQLEELINQHYSKLNDNDFHILKYILNHKHTCYHLGIDALAKACSVSRSSILRLAQKLGFSGYSEFRVFLKWEDQPEEGESMSFEKLLDDIEANLKFLRTKDMTDMCQLIDAADRIFVYGSGNAQKICARDLQRMFIPRHRYLILIEDTNEFNLMRDDFKVNDLFIIISLSGETPELIPQARMLSAKGIPFISITNLKNNVLAQLTPHNLYATSKPVTLSDRTEIVAFAPFFLVGEALFRAYVDYKEAEKNDNE | not soluble |
| TPQYESTTKMYVLSKQDNNTLTQQDMQTSLSLTKDYAELIKSRTVTEGVIAQLNLDLTHEELLKKMTVDSATDTRILSITVTDADPYEACKIANAIRDVAANHIKNVMDIDAVNVVETANIPDQQSSPSISKN | not soluble |
| MAMKRREMLSLCGKSVIALGCGGLPAILRAQGRFPSKALTYVVAYTPGSANDILVRILAPELGTQLGQSIIVDNKPGAGGSIGMAAVAQSKADGYTLGLGSTATMAINRALYKNLPYDPLRDFESVVKFASTANVLVVPAGGPAKTLADLKPRDGKPLMFSSPGNGTTQHLAGVLFSSTTKLPTEHVPYRGPAESVMAVASGEVDFSLASLPSALAQIRAGRLRVLGCTSLKPPSSLPQAVSLAEQGLPGFERTEVWFGLVVPSGTPDQARLALEQASVQVLGKQDVREKLEQAGYQPANPQSEGKFDPFVREQVAFWADLVKQAGASIDLEHHHHHH | soluble |
| MGSDKIHHHHHHLRDATSQIGQTVVGEAVRLVSFRPLGNLANHTLLMAAIVMMQSKHPDQFEKSNEILDTLMEREMHHPVVLTWAGIWHVMRVQKGLSGDRRKSTLMAENLANAALAQDPAFSLAHTLKGMIASYLTFDFDNAQYSYDKALQDNPNEALALLLKGATRAMQNRPDEGVVLTEAARKLTPLGPQRYYFDSLAAAVSLAARDYNRAIELADRSLEENDSYPSTLRTKAIALQMSGRSDEARHVVESLMKVTPDFSLSRYMQEHAAGFTPSGPDWASALREAGVPE | not soluble |

From the DeepSol protein solubility set
